The test system of the data set is MS2 coat protein. The data set can be described thus: apparent KD of MS2 coat protein; designed switch direction (-1 OFF switch, 1 ON switch): -1; higher = weaker reporter binding. The procedure, abridged: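 Normalised cluster fluorescence was curve-fitted, and each design's median over clusters is its apparent KD. Before this, SNAP-549-labelled MS2 coat protein was titrated from 0.7 or 1.5 nM, doubling to 3 µM, over RNA switches transcribed on Illumina chips by stalled E. coli RNA polymerase. Titrations had no input, 200 uM small-molecule ligand, or an oligonucleotide input, and steps lasted 0.8–1.5 h (lowest) to 10–20 min (highest).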

[1] abbreviates: input ligand: microRNA oligo, concentration not stated.
Where [2] appears, read: Eterna round: R95, input ligand: microRNA oligo, concentration not stated.
Setting [3] is: Eterna round: R95, input ligand: FMN 200 uM.
Where [4] appears, read: Eterna round: R95, input ligand: none.

We go through 30 sequences from the supplement of paper PMC9170038.

On to “UGAGUGCUGCGAGGAUAUACAUGAGGAUCACCCAUGUAAUCGUGUGAGGCAAAGCCUCACACGAUGUAGAAGGCGCAGUACUCU [Mat - Exclusion NG 2 - Mod of JL - D23] (Eterna round: R96, puzzle: Exclusion NG 2)”, for which the “apparent KD of MS2 coat protein” value (input ligand: FMN 200 uM) came out at 12.8 nM, the “apparent KD of MS2 coat protein” value under setting [1] came out at 11.4 nM and the “apparent KD of MS2 coat protein” value (input ligand: none) was determined as 18.2 nM.
“UGAGUGGUGCGAGGAUAUACAUGAGGAUCACCCAUGUAAACGUGUGAGGCUUUGCCUCACACGAUGUAGAAGGCGCACUACUCU [Mat - Exclusion NG 2 - Mod of JL - D13] (Eterna round: R96, puzzle: Exclusion NG 2)”: the “apparent KD of MS2 coat protein” value worked out at 15.6 nM (input ligand: FMN 200 uM), 9.36 nM under setting [1] and 13.6 nM (input ligand: none).
Regarding “UGAUCUAGCGGAGGAUAUACAUGAGGAUCACCCAUGUAGUAGUGAGUACCGUAGUGCUCACUUGUGUAGAAGGCCGCUAGAUCU [JL ENG2 3.60] (Eterna round: R96, puzzle: Exclusion NG 2)”, the “apparent KD of MS2 coat protein” value is, setting by setting: (input ligand: FMN 200 uM) 17.9 nM; under setting [1], 9.86 nM; (input ligand: none) 13.5 nM.
For the sequence “UGAUCUUGUGUUAGGAUAUGCUGGUUUUUUUUUCAGCAGAAGGGACAUGAGGAUCACCCAUGUUCUCUCUUUUU [Magic-10] (puzzle: Brourd's mod of Exclusion 4)”, under setting [2], the “apparent KD of MS2 coat protein” value is 15 nM.
As for “UGCAAGCUUUAAAGAUCCUACAUGAGGAUCACCCAUGUGCUCGUCUUAUAACGUACUGUGACGAAAGUCACGGUACG [JL TOV1 3.96] (Eterna round: R97, puzzle: Sensor, turn-off variant 1)”, the “apparent KD of MS2 coat protein” value turned out to be 324 nM (input ligand: FMN 200 uM) and 315 nM (input ligand: none).
In the case of “UGCAGACGAGGAUAUAAACGAUAUAACAUGAGGAUCACCCAUGUACGAUCGAAUGAUCGUUUAGAAGGCGUCUGCA [E5/10-A1] (Eterna round: R97, puzzle: Exclusion 5)”, the “apparent KD of MS2 coat protein” value by setting is: (input ligand: FMN 200 uM) 16.6 nM; (input ligand: none) 15.7 nM.
Regarding “UGCAGACGAGGAUAUGAUUAAUAAUACAUGAGGAUCACCCAUGUAAUACUGAUCUAUGGAUCAGAAGGCGUCUGCA [E5/6-A1] (Eterna round: R97, puzzle: Exclusion 5)”, the “apparent KD of MS2 coat protein” value by setting is: (input ligand: FMN 200 uM) 11.4 nM; (input ligand: none) 12.9 nM.
On to “UGCAGUGAUCCAGAAUGUUACAUGAGGAUCACCCAUGUUAGUAUUGUUUAGUUGUAUAAGUUUGUUGUUCGUUUUAU [JR_STOV1_v2_Sub079] (Eterna round: R97, puzzle: Sensor, turn-off variant 1)”, for which the “apparent KD of MS2 coat protein” value (input ligand: FMN 200 uM) amounted to 68.8 nM and the “apparent KD of MS2 coat protein” value (input ligand: none) turned out to be 202 nM.
Turning to “UGCAUGGUAGGAUAUACGGAACAUUAGGGUUUGUUGUGUGGACAUGAGGAUCACCCAUGUAGAAGGGCCGUGCU [JL-ex2-2.15 mat747 mod] (puzzle: Exclusion 2)”, the “apparent KD of MS2 coat protein” value under setting [2] came to 40.4 nM.
In the case of “UGCAUGUAAGGAUAUGCAUCCGCCAACGAACCGGCGGCACAGCAGAAGGUACAUGAGGAUCACCCAUGUGUCCC [Isonrian] (Eterna round: R96, puzzle: Exclusion 4)”, the “apparent KD of MS2 coat protein” value came to 357 nM (input ligand: FMN 200 uM), 25 nM under setting [1] and 29.8 nM (input ligand: none).
As to “UGCAUGUCAGGAUAUCGUGCAUACAACGAAAGUUCUAUGUGCGAGAAGGGACAUGAGGAUCACCCAUGUCUUAG [Omei Ex4 A18] (Eterna round: R97, puzzle: Exclusion 4)”, the “apparent KD of MS2 coat protein” value by setting is: (input ligand: FMN 200 uM) 67.1 nM; (input ligand: none) 22.6 nM.
For “UGCCGAAGAGGAUAUACAUUGAAUUUGAUUCAUGUAAAACUACAUGAGGAUCACCCAUGUAGAAGGCUUUGGCU [Mat - Exclusion 2 - JL Mod - D61] (Eterna round: R97, puzzle: Exclusion 2)”, the “apparent KD of MS2 coat protein” value (input ligand: FMN 200 uM) amounted to 34.2 nM and the “apparent KD of MS2 coat protein” value (input ligand: none) was found to be 15.3 nM.
Take “UGCGAAGAGUGAGGAUAUGUGCGACAAAGUUGCACAGAAGGCACAUGAGGAUCACCCAUGUAAGCUAGGUCGAAAGACCUAGCG [Omei Exc(NG)1 Av5] (Eterna round: R96, puzzle: Exclusion NG 1)”: the “apparent KD of MS2 coat protein” value (input ligand: FMN 200 uM) was 106 nM, the “apparent KD of MS2 coat protein” value under setting [1] was found to be 40.6 nM and the “apparent KD of MS2 coat protein” value (input ligand: none) is 43.4 nM.
“UGCUACAUGAGGAUCACCCAUGUAAUGUGGGAAUCGUUAGGACAGGAUAUGAUUGUAUUGUUUUUUCAGAAGGGUCAUUACUUU [JR_ExcNG3_Sub012] (Eterna round: R96, puzzle: Exclusion NG 3)”: the “apparent KD of MS2 coat protein” value under setting [1] stood at 212 nM.
On to “UGCUACGGAGGAUAUACAUGAGGAUCACCCAUGUGUGAGAUUUGGCCGAGAGGCCAGUGUAGAAGGCCGUAGCU [jl-ex3-4.19 jl mod] (Eterna round: R97, puzzle: Exclusion 3)”, for which the “apparent KD of MS2 coat protein” value came out at 615 nM (input ligand: FMN 200 uM) and 193 nM (input ligand: none).
The like results for “UGGCUUUGAGGAUAUACAUUGAAUAAGAUUCAUGUAAAACUACAUGAGGAUCACCCAUGUAGAAGGCAAGGCCU [Mat - Exclusion 2 - JL Mod - D74] (Eterna round: R97, puzzle: Exclusion 2)” were, in that order, 26.9 nM and 16 nM.
For “UGGGUUCUCCAUAGAAGUAACAUGAGGAUCACCCAUGUAGGGCAAGUUUUUUGCUCGUCAUAGGUUGUGGGUUUGGA [JR_SV3TOV1_Sub018] (puzzle: Sensor v3, turn-off variant 1)”, the “apparent KD of MS2 coat protein” value turned out to be 578 nM under setting [3], 491 nM under setting [2] and 660 nM under setting [4].
As to “UGGGUUCUCCAUGGAAGUAACAUGAGGAUCACCCAUGUAGGGCAAGUUUUUUGCUCGUCAUAGGCCGUGGGUUUGGA [JR_SV3TOV1_Sub019] (puzzle: Sensor v3, turn-off variant 1)”, the “apparent KD of MS2 coat protein” value under setting [3] was 252 nM, the “apparent KD of MS2 coat protein” value under setting [2] worked out at 248 nM and the “apparent KD of MS2 coat protein” value under setting [4] is 305 nM.
As to “UGGUAACAUGAGGAUCACCCAUGUCAGGAUAUCAGUAAGAAUAGAUGAGAGUAGAAGAUGAGAAGGGACUAUAU [Excluse me! 7 - Jieux - Exclusion 1] (puzzle: Exclusion 1)”, under setting [2], the “apparent KD of MS2 coat protein” value worked out at 29.1 nM.
On to “UGGUGGAAGCAGGAUAUGCUUGUUUUAUUGAUUGCAGAAGGGCUAACAUGAGGAUCACCCAUGUAAGAGGUGUU [JR_E6_Sub055] (puzzle: Exclusion 6)”, for which the “apparent KD of MS2 coat protein” value under setting [2] was determined as 303 nM.
In the case of “UGUACGAUGCGUGCUGACAUGCGUCGUGCAGCAGGUGUUACAUGAGGAUCACCCAUGUCCUCAUUUGCUCGUCUUAU [SL-sv3-2.08 JL mod] (puzzle: Sensor v3, turn-off variant 2)”, the “apparent KD of MS2 coat protein” value under setting [3] was found to be 250 nM, the “apparent KD of MS2 coat protein” value under setting [2] was 250 nM and the “apparent KD of MS2 coat protein” value under setting [4] came to 337 nM.
Regarding “UGUACUAACACGGAAGUGUUAGUACUAUAAGCUUGUGUUACAUGAGGAUCACCCAUGUCCUCAUAAGCUCGUCUUAA [Mat - Sensor v3 - Turn-off var 2 - D73] (puzzle: Sensor v3, turn-off variant 2)”, the “apparent KD of MS2 coat protein” value by setting is: under setting [3], 43.3 nM; under setting [2], 198 nM; under setting [4], 41 nM.
On to “UGUACUAACACGGAAGUGUUAGUACUAUAAGCUUGUGUUACAUGAGGAUCACCCAUGUCCUCAUAAGCUCGUCUUAU [Mat - Sensor v3 - Turn-off var 2 - D74] (puzzle: Sensor v3, turn-off variant 2)”, for which the “apparent KD of MS2 coat protein” value came to 157 nM under setting [3], 53.6 nM under setting [2] and 172 nM under setting [4].
For the sequence “UGUAUACAUGAGGAUCACCCAUGUAAGGAUAUGCUUUAUUAUUAUUAUUAUUAUUGUUGCAGAAGGUACAUUAU [LRO-Excl01-07] (Eterna round: R97, puzzle: Exclusion 1)”, the “apparent KD of MS2 coat protein” value reads like this: (input ligand: FMN 200 uM) 26.4 nM; (input ligand: none) 25.6 nM.
The matching figures for “UGUAUUAUAGGAUAUCACAACCUGGACAUGAGGAUCACCCAUGUGGUUGCAUGCUGUCGAUGAGAAGGAUAGGGCG [Eternabot (L1) Solution 43] (Eterna round: R97, puzzle: Exclusion 5)”: 22.8 nM and 21.9 nM.
In the case of “UGUCUGUCAGGAUAUUCGAGUUCGAGUGAAAGCUUGAGCUUGAAGAAGGGACAUGAGGAUCACCCAUGUGGACG [-28.5, -27.4 kcal, A 27%, 1bis-(ca)1] (Eterna round: R97, puzzle: Exclusion 4)”, the “apparent KD of MS2 coat protein” value is, setting by setting: (input ligand: FMN 200 uM) 87.8 nM; (input ligand: none) 50.1 nM.
Consider “UGUGAGCUAGGAUAUGCUUUGGGCUCGCUUUCCUUCGAUAAACUUGAGGAUCACCCAAGUAGAAGGAGCUUGCA [Mod 31 - Jieux - Exclusion 2] (Eterna round: R97, puzzle: Exclusion 2)”, for which the “apparent KD of MS2 coat protein” value is 39.6 nM (input ligand: FMN 200 uM) and 20.4 nM (input ligand: none).
“UGUGUGUGAGGAUAUACAAUGCGCGCGCGAAAGUGUGUGUUACAUGAGGAUCACCCAUGUAGAAGGCGCGCGCG [-31, -27.8 kcal A 24%, 6,6bis] (Eterna round: R97, puzzle: Exclusion 2)”: the “apparent KD of MS2 coat protein” value (input ligand: FMN 200 uM) is 15.7 nM and the “apparent KD of MS2 coat protein” value (input ligand: none) was found to be 17 nM.
Consider “UGUUGGCGAGGAUAUACAUGAGGAUCACCCAUGUGAGAGAAAAAAGUGAGGAAGAAAAGUAGAAGGCGCUGACA [salish99_ex3_r3_045] (puzzle: Exclusion 3)”, for which the “apparent KD of MS2 coat protein” value is, setting by setting: under setting [3], 371 nM; under setting [2], 42.5 nM; under setting [4], 48.4 nM.
In the case of “UGUUGUCGCGCAGGAUAUGUAUGAGGAUCACCCAUAAGAGUAUAUUUACCAUGAGGAUCACCCAUGUAGAAGGGCGGGACAACA [pwkr exNG2 2xF5 1xFMN.11] (Eterna round: R96, puzzle: Exclusion NG 2)”, the “apparent KD of MS2 coat protein” value is, setting by setting: (input ligand: FMN 200 uM) 105 nM; under setting [1], 46.6 nM; (input ligand: none) 73.6 nM.
